# B1: CACACA_negctrl_site1012 (dsDNA)
# DNA 1: ATAATTTCTATTTCACAAAAAAAAAAAAAAAAAAAA
# DNA 2: TTTTTTTTTTTTTTTTTTTTGTGAAATAGAAATTAT
# B2: CACACA_negctrl_site442 (dsDNA)
# DNA 1: TGGTTTCAATAATTAATAAAATATATTATTGTGAAA
# DNA 2: TTTCACAATAATATATTTTATTAATTATTGAAACCA
# B3: CACACA_negctrl_site945 (dsDNA)
# DNA 1: ATATAAATAAATTAGTGAAAAAAAAAAAATTTTTTT
# DNA 2: AAAAAAATTTTTTTTTTTTCACTAATTTATTTATAT
# B4: CACACA_negctrl_site1347 (dsDNA)
# DNA 1: ATTTTTTTTTTTTTTTTTTTTTTTTTTTAATCTGGA
# DNA 2: TCCAGATTAAAAAAAAAAAAAAAAAAAAAAAAAAAT
# B5: CACACA_negctrl_site169 (dsDNA)
# DNA 1: TTATTTCTTCAGAAAAAATTAAAAAATTAAACAATA
# DNA 2: TATTGTTTAATTTTTTAATTTTTTCTGAAGAAATAA
# B6: CACACA_negctrl_site731 (dsDNA)
# DNA 1: TCTAAACAAATTAATAAAATAAGTATTCAAAATTAT
# DNA 2: ATAATTTTGAATACTTATTTTATTAATTTGTTTAGA
# B7: CACACA_negctrl_site1228 (dsDNA)
# DNA 1: ATATTTTGGGGACTTTTTAAAAAAGAAGTATTAAAA
# DNA 2: TTTTAATACTTCTTTTTTAAAAAGTCCCCAAAATAT
# B8: CACACA_negctrl_site1335 (dsDNA)
# DNA 1: TAAAATTTTAACAAAAAAAAAAAAAAAAAAAGAAAA
# DNA 2: TTTTCTTTTTTTTTTTTTTTTTTTGTTAAAATTTTA
# B9: CACACA_negctrl_site1036 (dsDNA)
# DNA 1: ATATTGTATTATCTTTATGTACCAAAAAAAAAAAAA
# DNA 2: TTTTTTTTTTTTTGGTACATAAAGATAATACAATAT
# B10: CACACA_negctrl_site1736 (dsDNA)
# DNA 1: ATTGAAAATTATTTACCTTCTTTGAAAGAACAAATG
# DNA 2: CATTTGTTCTTTCAAAGAAGGTAAATAATTTTCAAT
# B11: CACACA_negctrl_site1598 (dsDNA)
# DNA 1: TATTTTAACATGTTTTCAAAAATAAAACATATAAAT
# DNA 2: ATTTATATGTTTTATTTTTGAAAACATGTTAAAATA
# B12: CACACA_negctrl_site454 (dsDNA)
# DNA 1: TATTGTAATATTATATATATCTATTATGTATATAAA
# DNA 2: TTTATATACATAATAGATATATATAATATTACAATA
# B13: CACACA_negctrl_site283 (dsDNA)
# DNA 1: ACATTCTGATGGTGATTATTAATTATTACAAAAATT
# DNA 2: AATTTTTGTAATAATTAATAATCACCATCAGAATGT
# B14: CACACA_negctrl_site466 (dsDNA)
# DNA 1: ATAAAAGAATTAAATAATCAAAATGATTATTTTATA
# DNA 2: TATAAAATAATCATTTTGATTATTTAATTCTTTTAT
# B15: CACACA_negctrl_site1402 (dsDNA)
# DNA 1: TTATTATTCTTAAGGATATAACAAAAAAGAAAAATT
# DNA 2: AATTTTTCTTTTTTGTTATATCCTTAAGAATAATAA
# B16: CACACA_negctrl_site801 (dsDNA)
# DNA 1: GATTTATATATATAAAATAATTGAATATTTTCTTTT
# DNA 2: AAAAGAAAATATTCAATTATTTTATATATATAAATC
# B17: CACACA_negctrl_site90 (dsDNA)
# DNA 1: TTATAATATATATAAAAGAAAAAAAATTATAATATA
# DNA 2: TATATTATAATTTTTTTTCTTTTATATATATTATAA
# B18: CACACA_negctrl_site1416 (dsDNA)
# DNA 1: TTTTTTGTACCAAAAAAAAAAAAAAGAAAAAAAAAC
# DNA 2: GTTTTTTTTTCTTTTTTTTTTTTTTGGTACAAAAAA
# B19: CACACA_negctrl_site941 (dsDNA)
# DNA 1: ATATTACGCACAAAAAAAAAAAAAAAAAAAAAAAAA
# DNA 2: TTTTTTTTTTTTTTTTTTTTTTTTTGTGCGTAATAT
# B20: CACACA_negctrl_site624 (dsDNA)
# DNA 1: TTATAATAAATATTCATATGTTCAAATATATATATA
# DNA 2: TATATATATATTTGAACATATGAATATTTATTATAA
# B21: CACACA_negctrl_site213 (dsDNA)
# DNA 1: ATAAATATATGGTTTCATTATATTAAATTCAATTTA
# DNA 2: TAAATTGAATTTAATATAATGAAACCATATATTTAT
# B22: CACACA_negctrl_site82 (dsDNA)
# DNA 1: TTTTGTTTCTATATAAGATGGAAATATAAACTTGTA
# DNA 2: TACAAGTTTATATTTCCATCTTATATAGAAACAAAA
# B23: CACACA_negctrl_site159 (dsDNA)
# DNA 1: TTTTTTTATTATTCTTATATAAAAATTTTTTTTAAT
# DNA 2: ATTAAAAAAAATTTTTATATAAGAATAATAAAAAAA
# B24: CACACA_negctrl_site918 (dsDNA)
# DNA 1: TTTTTTTTTTCTTTTTTTCTCATGAAATTCTAAATG
# DNA 2: CATTTAGAATTTCATGAGAAAAAAAGAAAAAAAAAA
# B25: CACACA_negctrl_site152 (dsDNA)
# DNA 1: TTTTAAATAATTCGTAATTATAATTATGGAAAAAAG
# DNA 2: CTTTTTTCCATAATTATAATTACGAATTATTTAAAA
# B26: CACACA_negctrl_site575 (dsDNA)
# DNA 1: TATTTACAAAAAAAATATAAAAAATATAAAATATAT
# DNA 2: ATATATTTTATATTTTTTATATTTTTTTTGTAAATA
# B27: CACACA_negctrl_site1467 (dsDNA)
# DNA 1: TTATATAATGACAAAAAAAAAAAAAAAAAAAAAAAA
# DNA 2: TTTTTTTTTTTTTTTTTTTTTTTTGTCATTATATAA
# B28: CACACA_negctrl_site970 (dsDNA)
# DNA 1: ATATTTTTATGTACTTCAAAAAAAAAGAAAAACAAA
# DNA 2: TTTGTTTTTCTTTTTTTTTGAAGTACATAAAAATAT
# B29: CACACA_negctrl_site427 (dsDNA)
# DNA 1: TTTATAAATTCTCTTTTTAAAAAATATTTTTATACT
# DNA 2: AGTATAAAAATATTTTTTAAAAAGAGAATTTATAAA
# B30: CACACA_negctrl_site797 (dsDNA)
# DNA 1: AAATGTATAATTTTTTAATACACTTATTTAAAATAA
# DNA 2: TTATTTTAAATAAGTGTATTAAAAAATTATACATTT
# B31: CACACA_negctrl_site1769 (dsDNA)
# DNA 1: TTTTTACGTAAACAAAATAATTATATAATATTATTT
# DNA 2: AAATAATATTATATAATTATTTTGTTTACGTAAAAA
# B32: CACACA_negctrl_site1344 (dsDNA)
# DNA 1: TTATGTATTCATTTTTTTTAAGCACCCCAAAATGAT
# DNA 2: ATCATTTTGGGGTGCTTAAAAAAAATGAATACATAA
# B33: CACACA_negctrl_site1724 (dsDNA)
# DNA 1: TTTTTCTTTTTTTTTTTAATAATATATAACAAATTT
# DNA 2: AAATTTGTTATATATTATTAAAAAAAAAAAGAAAAA
# B34: CACACA_negctrl_site80 (dsDNA)
# DNA 1: TTTAATAAATAAATAAATAAAATATATTAAAAACCA
# DNA 2: TGGTTTTTAATATATTTTATTTATTTATTTATTAAA
# B35: CACACA_negctrl_site65 (dsDNA)
# DNA 1: ATTAAAAATTATATTTTATAAAAATTAAAAGAAATA
# DNA 2: TATTTCTTTTAATTTTTATAAAATATAATTTTTAAT
# B36: CACACA_negctrl_site1813 (dsDNA)
# DNA 1: TTTTTATTCGATGATCAAATAGGTATATACAAAAAA
# DNA 2: TTTTTTGTATATACCTATTTGATCATCGAATAAAAA
# B37: CACACA_negctrl_site87 (dsDNA)
# DNA 1: TCTTTCTAAATCTTACAAATTACTAAAATATTTATA
# DNA 2: TATAAATATTTTAGTAATTTGTAAGATTTAGAAAGA
# B38: CACACA_negctrl_site1262 (dsDNA)
# DNA 1: ATATAAAGAAATTAATTTTTCAACAATAAAAATATA
# DNA 2: TATATTTTTATTGTTGAAAAATTAATTTCTTTATAT
# B39: CACACA_negctrl_site1281 (dsDNA)
# DNA 1: TAAAATTAAATGAAATCATTATTCATTTTTATTTTA
# DNA 2: TAAAATAAAAATGAATAATGATTTCATTTAATTTTA
# B40: CACACA_negctrl_site362 (dsDNA)
# DNA 1: TTATTTTTTCTTTTTTTTCTTACCACAAAAATGGAT
# DNA 2: ATCCATTTTTGTGGTAAGAAAAAAAAGAAAAAATAA
# B41: CACACA_negctrl_site651 (dsDNA)
# DNA 1: TTTGGAAAGCGTGATTTTTGACAAACACAAAAAAAA
# DNA 2: TTTTTTTTGTGTTTGTCAAAAATCACGCTTTCCAAA
# B42: CACACA_negctrl_site154 (dsDNA)
# DNA 1: TTTTAAAAAATATAATATAATATAATATAAAATAAA
# DNA 2: TTTATTTTATATTATATTATATTATATTTTTTAAAA
# B43: CACACA_negctrl_site1791 (dsDNA)
# DNA 1: TTTTAAAAAAAAAAAATAAATAAATAAGATATTATC
# DNA 2: GATAATATCTTATTTATTTATTTTTTTTTTTTAAAA
# B44: CACACA_negctrl_site473 (dsDNA)
# DNA 1: TATTTAATTATATAAAATTAAATTTTTAATTCTTCC
# DNA 2: GGAAGAATTAAAAATTTAATTTTATATAATTAAATA
# Target: T1, AP2-LT D1 (Plasmodium falciparum, UniProt Q8IAM1 2520-2577)
# T1 sequence: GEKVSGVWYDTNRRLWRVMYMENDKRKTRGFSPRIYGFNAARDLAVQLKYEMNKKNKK
# Assay: gcPBM; about 25 ug protein; PBS, 1% milk, 0.2 mg/ml BSA, salmon testes DNA, 0.03% Triton X-100
# Conditions: tags: N-terminal GST (pGEX-4T-1), kept; label: surface-attached array probe
row,Binder,binding signal
1,B1,"8.47 ln median PBM intensity, better of two orientations"
2,B2,"8.47 ln median PBM intensity, better of two orientations"
3,B3,"8.67 ln median PBM intensity, better of two orientations"
4,B4,"8.7 ln median PBM intensity, better of two orientations"
5,B5,"8.53 ln median PBM intensity, better of two orientations"
6,B6,"8.64 ln median PBM intensity, better of two orientations"
7,B7,"8.57 ln median PBM intensity, better of two orientations"
8,B8,"8.69 ln median PBM intensity, better of two orientations"
9,B9,"8.63 ln median PBM intensity, better of two orientations"
10,B10,"8.67 ln median PBM intensity, better of two orientations"
11,B11,"8.55 ln median PBM intensity, better of two orientations"
12,B12,"8.69 ln median PBM intensity, better of two orientations"
13,B13,"8.72 ln median PBM intensity, better of two orientations"
14,B14,"8.6 ln median PBM intensity, better of two orientations"
15,B15,"8.6 ln median PBM intensity, better of two orientations"
16,B16,"8.66 ln median PBM intensity, better of two orientations"
17,B17,"8.58 ln median PBM intensity, better of two orientations"
18,B18,"8.68 ln median PBM intensity, better of two orientations"
19,B19,"8.56 ln median PBM intensity, better of two orientations"
20,B20,"8.56 ln median PBM intensity, better of two orientations"
21,B21,"8.57 ln median PBM intensity, better of two orientations"
22,B22,"8.52 ln median PBM intensity, better of two orientations"

row,Binder,binding signal
1,B23,"8.48 ln median PBM intensity, better of two orientations"
2,B24,"8.68 ln median PBM intensity, better of two orientations"
3,B25,"8.59 ln median PBM intensity, better of two orientations"
4,B26,"8.62 ln median PBM intensity, better of two orientations"
5,B27,"8.49 ln median PBM intensity, better of two orientations"
6,B28,"8.64 ln median PBM intensity, better of two orientations"
7,B29,"8.65 ln median PBM intensity, better of two orientations"
8,B30,"8.49 ln median PBM intensity, better of two orientations"
9,B31,"8.71 ln median PBM intensity, better of two orientations"
10,B32,"8.67 ln median PBM intensity, better of two orientations"
11,B33,"8.68 ln median PBM intensity, better of two orientations"
12,B34,"8.65 ln median PBM intensity, better of two orientations"
13,B35,"8.5 ln median PBM intensity, better of two orientations"
14,B36,"8.69 ln median PBM intensity, better of two orientations"
15,B37,"8.61 ln median PBM intensity, better of two orientations"
16,B38,"8.61 ln median PBM intensity, better of two orientations"
17,B39,"8.47 ln median PBM intensity, better of two orientations"
18,B40,"8.71 ln median PBM intensity, better of two orientations"
19,B41,"8.66 ln median PBM intensity, better of two orientations"
20,B42,"8.59 ln median PBM intensity, better of two orientations"
21,B43,"8.55 ln median PBM intensity, better of two orientations"
22,B44,"8.5 ln median PBM intensity, better of two orientations"
